Data taken from the DeepSol protein solubility set.

Test: soluble on expression in E. coli; label from the status in PepcDB or PDB records

Row | Sequence | soluble on expression in E. coli
1 | MSLNAPRIIGVIVPDIVTHFFASILNGIENMAIDNGYFVIITTSHESFEHEKRNIENLVNMRVEGIIACLSQETTDFSHFAALKEINMPLILFDRVCLTDQFSSVIADGAQSAQMATQHLLDNGSKRVAFIGGANHLDIVKRRKHGYLEALRDNRIPIEKELVVCRKIDYEEGQIATETLLSLPQPPDAILAMNDTLAFAAMEVIKRHGLRIPDDIAIIGYTDEQHANYVEPKLSAVSHQTYKMGETACQLLIDQIKGDRTVKQVVIPTHLQIRESSIEGHHHHHH | soluble
2 | MSLNDKVTAVRDVWRYEQGEISKVEDRMVTEFPLTVILNGSEFVTLVCTPEHIEELVIGFLASEGVIRFQKEIKRFTIDESLGFVYVDLVHPETLDQKDYTKRVIGSCCGKGRHFYFQQDVKTAKTAVSQIKISPEACLALMKDMQQGSGTFQDTGGVHNAALCDTEKLLLMRTDIGRHNALDKLYGHCLLNGMSVRDKLIVFSGRISSEVLLKAAKIGVSIVISKSAPTELAIQMAEELNITAIGFVRNGSFNVYTHPERIREEGHHHHHH | soluble
3 | MSLNEIDKSVDIGFLRILDVIKKVKTPKGGIEVLRTLIDFTPKIENALNLATKSHKGQYRKSGEPYIVHPICVASVVAFCGGDEAMVCAALLHDVVEDTPCEIETIEREFGQDVANLVDALTKITEIRKEELGVSSQDPRMVVSALTFRKILISAIQDPRALVVKISDRLHNMLTLDALPHDKQVRISKETLAVYAPIASRLGMSSIKNELEDKSFYYIYPEEYKNIKEYLHKNKQSLLLKLNAFASKLEKKLFDSGFSHSDFKLVTRVKRPYSIYLKMQRKGAVNIDEILDLLAIRILLKNPIDCYKVLGIIHLNFKPIVSRFKDYIALPKENGYKTIHTTIFDESSVYEVQIRTFDMHMGAEYGNSAHWKYKAGGVDHEEHHEGMRWLQNFKYHDSDLKNDPKEFYELAKNDLYREDIVVFSPHGDTYTLPVGAIALDFAYMVHSDLGDKATDAYINSKKALLNQELRSGDVVKIIKGDKVIPRFIWMDQLKTSKAKNHLRIQRRNRLKEIDTKSMINILATFFGRSVFEDADLKDYKNFEEKLTDCGVETTLTEAMKSFENLAKLTEEIENKVFSLKEDAILEYQEMSLWTRGLRYLGFKTNVLNFLTPNRQWQCKELEHFSVCSSNALEIKQVLLNDCCYPKYGDEIIAIVTDLKDPKAIAHHKFCKKAIAEVDAKVPMVYIEWHKRDRTIYKMMFYLGEKKSVLASLLTFLNRNECNIVGVSYLGYKDKYSSHCEVSFEIATDKADWMRALINRKYQDRIVELSSLDDAYELQEGHHHHHH | soluble
4 | MSLNESEEKNSNSTYSFFFKNLSVTGFYEENCLFMTVKELFDNSIDALCNNKGDENIDEEGQGTQEKKIEIEIKEYGINSSFYEIICRDNGEGIEVKDLEKISEMFLTSKEKCITSGKFGIGLKTILLYSFKTAYGFLHIKIKVKKNKIWDFILVLDKNLNHTFVQNFKEYIDDKWEWTIEISVILKINNNYISDKKIHSYIKLFLLWKKNITVKYIHNPNGEQSIYTYSSHSDTSEENILSMLANNSINMIFKKDFLTSYNYDVNMYVNVRKSEKIIPYEHGHNIGFLFLIRYVNSMPLLRTSSSDCSITVDFRNFLKYYGPQFGIELPTIESRDEMILEELALPSCFDDLNKVANIFPVKRSEKSTWNIMIIGIDVRGRDISFVSLRKNCIKEGEYLSSLIKKCSINLYNNIKRELPQEFENLSDYQLRQALNIYGVQLASSLSKIILKGHEEFKNKIFFLLNEKKKIKNNSTCEKEEYNNKFTSYDENILTRELYSHIKEKIMLNEKTYENPKAKIQLTGDSNKSYYKNEGHHHHHH | not soluble
5 | MSLNGKNLTLNVPVTAAVPGARGIKADCITDGACTESSTYFQKSSNAATGSPYMFTIDMQKEAVISEINLSTRLVNGSEAAYKYTIEGSRDGKSYKMLVDGKLNWQVGFLILNIEDPSLYRYLRLRVYGVVNVHKNNSAMWADGIYEFAAYGKEGHHHHHH | not soluble
6 | MSLNILIVGGNGGIGLAMVKEALVRFPQAQIHATYRRTKSDYEHSALIWHQVDVTDETQVKNLSQAVNSIDWVINCVGMLHTPNKGPEKNLRMVEPDFFLQNIAVNTLPSMLLAKYFTPLLKCSGAPKFAVVSAKVGSISDNHLGGWYSYRASKAALNMFLKTMSIEWQRTLKNGVVLALHPGTTDTALSEPFQANVPEGKLFTPERVASDLMGQIVKAAPQDSGAFLTYDGEREGHHHHHH | soluble
7 | MSLNIPDEGFFTLLTQGMRNRTVETLQRALYHTLRDAILQGTLTARCRLPGSRVMAERLHLSRNTVNAALEQLALEGYLTRSRQGTQVAPLASCRQEAGQMPPVVLPERLQRLPAAMRRDSPTLAFTPGMPAVNYFPLPLWRRLMDNVLREDGSALLGYGEAAGDPLLREAIARHLALSRGIRCDIRQIVITEGALEGVNLCASLLTNPGDSVWLEEPGYLGAWSGFQRAGLRVRGMAVDDEGMCIANGVAEPPRLIFTSPSHQYPCGSIMSAGRRLALVEYARRHGAWIVEDDYDSEFRHSGEPIPAMLGMVPDAPVVYLGTFSKTLFPALRIGFMVMPPALADAAQDAIGALLRGGHRAEQRALASFIEKGHYARHLAAMRRLYRKRQQQLREALAQEITVPCDVLGGGGGMHLTVAMEGVNDRTLAQQARQFQLAPAALSHFYLDPQRARSGLVLGYGNTSASRYLPALRTLNRLIAQHRRAEGHHHHHH | not soluble
8 | MSLNKAVLHDHLDGGLRAKTAKELAIKDSYKPLIEIEDIESFFNRESSTSLEDYLEAFVHTTALMSNYDNLERIAFEAAEDMMHFCGITLYESRYAPLYSVNNNLLIKDVLHAINSGFKQAENMYGIKSGLILCGMRNDKDNVSQVSEIAIDFKDQIIGFDIAMGPEYNFLPSLFADEFNKLKNNGINLTIHAGEGDGVNSIQDALDNGAKRIGHGVRIIEDIDTSSKKLGKTAEYVRNKQVPLMEVCITSNIHTNMYEEYNKHPIKDLIDLEFNVSINTDNRLMSNTSMKKEIDIAKNLGINNIDRILENSASYSFLNDFEGHHHHHH | soluble
9 | MSLNKEFIMKFSLKSLLTIAAAASTLILAGCGEKAVDNNKVKIGVMAGAEAQVAEVAAKVAKEKYNLDVELVTFTDYVTPNAALDDGSIDANAFQHKPYLDKQIADRGYKLAIVGNTFVYPIAGYSKQIKSVDELQDGARIAVPNDPTNLGRSLLLLQQQGLLKLREDVGLLATVRDIVENPKKLEILELDAAQLPRSLDDVALSIINTTYASSINLTPEKDGIFVENKESPYVNILVAREANVNAENVQNFKKAYQTDEVAKAASEIFQGGAVKGWEGGSHHHHHH | soluble
10 | MSLNKELIQHAAYAAIERILNEYFREENLYQVPPQNHQWSIQLSELETLTGEFRYWSAMGHHMYHPEVWLIDGKSKKITTYKEAIARILQHMAQSADNQTAVQQHMAQIMSDIDNSIHRTARYLQSNTIDYVEDRYIVSEQSLYLGHPFHPTPKSASGFSEADLEKYAPECHTSFQLHYLAVHQDVLLTRYVEGKEDQVEKVLYQLADIDISEIPKDFILLPTHPYQINVLRQHPQYMQYSEQGLIKDLGVSGDSVYPTSSVRTVFSKALNIYLKLPIHVKITNFIRTNDLEQIERTIDAAQVIASVKDEVETPHFKLMFEEGYRALLPNPLGQTVEPEMDLLTNSAMIVREGIPNYHADKDIHVLASLFETMPDSPMSKLSQVIEQSGLAPEAWLECYLNRTLLPILKLFSNTGISLEAHVQNTLIELKDGIPDVCFVRDLEGICLSRTIATEKQLVPNVVAASSPVVYAHDEAWHRLKYYVVVNHLGHLVSTIGKATRNEVVLWQLVAHRLMTWKKEYANNAVFVDCVEDLYQTPTIAAKANLMSKLNDCGANPIYTHIPNPICHNKEVSYCESEGHHHHHH | soluble
11 | MSLNKYLEQLVLLSKIDQEIDSYEPKIDSINKTLKDAELKIEKINADLEKIDEEIKDIENQKIQNNAHISEFSAKIKDLSKKSGVVKTEKEANALKIEEDIAKEQLDAANDEIVRLDKILENKETYKKELEEEKIKQEQNINEIRVSIKSEMEVLEKDRMSVYDKKTKLVSEMNQKVLSFYEKIRKWAKNTAVVPVKKQACYGCFMKIYDKTYLSVVKGEEIVTCPHCGRILYKEQEEQNEGHHHHHH | soluble
12 | MSLNLDFELNLTQQQKLVMTQQMQMSIKLLQMSNMELNEYIRSEIEENPLLDGKEVIKNDEYQSEMSKVDYKEFIKYLDFDNYTHENYSYRSEEEEVSPFNFIGSKKSFTEYLLDQLREISIDSETRHICEYIIENLDRDGYLRDSLEDIGMAVHKELKSVQNALNVVQSLEPIGVGARNLAECLKLQIYVRNVNDTKLIEIIDKHLGNIAENKYGVIAKELNITPKEAQEYGDYIKKLEPKPSRGFFTGDEVKYVVPDAFIRKIDDDFYVIMNDSSIPKLSINNTYKNILNTENDKKDVDYVKEKLNSAMFLLKSIEQRKTTLYEVLNEILRYQKAYFVGKTNYLRPMTLKDISEKLGMHESTISRAIREKYVYIDTKGLVKIRDMFTTGIASAYSVSEDKKDMSTQKIKNEIRDLIEKENKKSPLSDQKLSEILKEKGMNISRRTVAKYREEIGIKSSAKRKRYEGHHHHHH | soluble
13 | MSLNLTFKKKSFFFKLSSKVDNSNTTYNYKSGWIIKLKNIEKGVGFGEVNPLRKHDLDACQIQLNQIPKYVNSKNISELIKNFHPCIQSAINSALAEIERKINFQENYYFNEIDQTAILLDPHNALKELIILKGNKLLNKKSLTIKWKVGIQDNFSEEKTLIEILNHLKSNIKLRIDANGSWERETANRWVDILKDIENIDWLEQPLSKDDIEGLKELNKKMPIALDESLLKYPYLINEWDGWQIRRPSQERNPMQLLKELKDKKGFRSLSTSFETGIGRRWLFHLSSLQLLGLTPKVPGLALKKNPNSFLFQNDAQKIWDQLEGHHHHHH | not soluble
14 | MSLNLTVSDVVELMGDAVVQTGEASLQTQPVEWVSVIETPVENFVRENELVLTTGIGCGEDEERFLQFVHDIAASNAAALAIAMGRFVKHIPDRVLHYASTHGLILLEIPWELRFADLIQSVLLQMEQRKQKEIEQAESLRKQLLEMEGHHHHHH | soluble
15 | MSLNPLSRNVIPIEIHRIVAVGDVHGDAERFRQILEMSGVISLRSNSSKQVVWKPRWGTKEGNFFREYGTRLRTTLIQTGDLIDRGEEDLEVLEMAVSLFNEVRTNYTDDKVVLLMGNHELLNLQGHFHYVHSKSMGGFLTRALRKRAFELDGTFGGFILENFTVAYAVADTLFVHAGIDEHVVSDGIERLNREAKQAIRTKNFGHILLGSTGPLWSRKMFLDASNGRCADTKKALASLGVKRVVVGHTPQRSGRVETFCGGSVIAIDVGMSRWMYGNIAALEITVTSYSSGDGEGHHHHHH | soluble
16 | MSLNRFTKTSQGRSWNTGNGSPDAICFAVDKPGIVVVGFAVYGGGGIHEYELEVLVDDSEHAGDSTHSHRWTSLELVKGTYTTDDSPSDIAEIRLDKVVPLKENVKYAVRLRNYGSRTANGDGGMTTVQCPDGVTFTFSTCSLSSNGTNQTRGQIPQILYYRSEFDGDLQSQLLSKANEEDKNCSRALSVVSTVVRAAKDLLHRALAVDADEGHHHHHH | not soluble
17 | MSLNSAMDKILVVNEGGELLRFKAMQQDLLYESLLKNHCYHTAYYLNSFDRLSLQENRARALFLVNKPDANTIFAKYQADRGYGDALELGVVYRTEFEKMLSVSVSGEEYHVTFSSVLSIINGNDVRKIRILSEGTVIRTTPRFPENTSGFFFRTYNQQYEMEGHHHHHH | soluble
18 | MSLNSQGYAVVDFETTGLSPAKGDRAIEIGLVHVAPDGTLEDEHETLIHVDRSVGASWVHHITARELLHAPDFEGIAHELRDLLAGRVFVAHNVSFDSRFLLAEYSRMGASIPVDQSTMLCTMKLSRSLIGRGKLADCCEYFGIANEDAHSALSDAHATAILLGRLLEADPKWPGFQRRLDAAGAAAEQWPTFATLPKKEWLPRGTHLAEGHHHHHH | soluble
